Measured values reported in the RNAGym collection of RNA variant scans (doi:10.7554/elife.80360).

B1: Twister Ribozyme (parent)
chain: AACACUGCCAAUGCCGGUCCCAAGCCCGGAUAAAAGUGGAGGGGGCGG

Variants of: B1
Experiment: self-cleavage, relative activity (ratio to wild type); higher = more cleavage; co-transcriptional

**Q.** For AACACUGCCAAUGCCGGUCCCAAGCCCGGAUAAAAGAGAAGGGGGCGG [U37A G39A], which self-cleavage is on record?
**A.** 0.173

**Q.** For AACACUGCCAAUGCCGGUCCCAAGCCCGGAUAAAAGAGUAGGGGGCGG [U37A G39U], which self-cleavage is on record?
**A.** 0.159

**Q.** For AACACUGCCAAUGCCGGUCCCAAGCCCGGAUAAAAGAGGAAGGGGCGG [U37A G41A], which self-cleavage is on record?
**A.** 0.16

**Q.** Which self-cleavage does the source give for AACACUGCCAAUGCCGGUCCCAAGCCCGGAUAAAAGAGGACGGGGCGG [U37A G41C] here?
**A.** 0.178

**Q.** Which self-cleavage does the source give for AACACUGCCAAUGCCGGUCCCAAGCCCGGAUAAAAGAGGAUGGGGCGG [U37A G41U] here?
**A.** 0.115

**Q.** With AACACUGCCAAUGCCGGUCCCAAGCCCGGAUAAAAGAGGAGAGGGCGG [U37A G42A] as the variant, how does the self-cleavage read?
**A.** 0.129

**Q.** With AACACUGCCAAUGCCGGUCCCAAGCCCGGAUAAAAGAGGAGCGGGCGG [U37A G42C] as the variant, how does the self-cleavage read?
**A.** 0.252

**Q.** With AACACUGCCAAUGCCGGUCCCAAGCCCGGAUAAAAGAGGAGUGGGCGG [U37A G42U] as the variant, how does the self-cleavage read?
**A.** 0.153

**Q.** With AACACUGCCAAUGCCGGUCCCAAGCCCGGAUAAAAGAGGAGGUGGCGG [U37A G43U] as the variant, how does the self-cleavage read?
**A.** 0.186

**Q.** With AACACUGCCAAUGCCGGUCCCAAGCCCGGAUAAAAGAGGAGGGAGCGG [U37A G44A] as the variant, how does the self-cleavage read?
**A.** 0.873

**Q.** With AACACUGCCAAUGCCGGUCCCAAGCCCGGAUAAAAGAGGAGGGCGCGG [U37A G44C] as the variant, how does the self-cleavage read?
**A.** 0.821

**Q.** Which self-cleavage does the source give for AACACUGCCAAUGCCGGUCCCAAGCCCGGAUAAAAGAGGAGGGUGCGG [U37A G44U] here?
**A.** 0.755

**Q.** Which self-cleavage does the source give for AACACUGCCAAUGCCGGUCCCAAGCCCGGAUAAAAGAGGAGGGGCCGG [U37A G45C] here?
**A.** 0.323

**Q.** With AACACUGCCAAUGCCGGUCCCAAGCCCGGAUAAAAGAGGAGGGGGCAG [U37A G47A] as the variant, how does the self-cleavage read?
**A.** 0.457

**Q.** For AACACUGCCAAUGCCGGUCCCAAGCCCGGAUAAAAGAGGAGGGGGCGA [U37A G48A], which self-cleavage is on record?
**A.** 0.797

**Q.** With AACACUGCCAAUGCCGGUCCCAAGCCCGGAUAAAAGAGGAGGGGGCGC [U37A G48C] as the variant, how does the self-cleavage read?
**A.** 0.865

**Q.** Which self-cleavage does the source give for AACACUGCCAAUGCCGGUCCCAAGCCCGGAUAAAAGCGGCGGGGGCGG [U37C A40C] here?
**A.** 0.0942

**Q.** With AACACUGCCAAUGCCGGUCCCAAGCCCGGAUAAAAGCGGGGGGGGCGG [U37C A40G] as the variant, how does the self-cleavage read?
**A.** 0.161

**Q.** With AACACUGCCAAUGCCGGUCCCAAGCCCGGAUAAAAGCGGUGGGGGCGG [U37C A40U] as the variant, how does the self-cleavage read?
**A.** 0.0912

**Q.** For AACACUGCCAAUGCCGGUCCCAAGCCCGGAUAAAAGCGGAGGGGGAGG [U37C C46A], which self-cleavage is on record?
**A.** 0.71

**Q.** Which self-cleavage does the source give for AACACUGCCAAUGCCGGUCCCAAGCCCGGAUAAAAGCGGAGGGGGGGG [U37C C46G] here?
**A.** 0.706

**Q.** With AACACUGCCAAUGCCGGUCCCAAGCCCGGAUAAAAGCAGAGGGGGCGG [U37C G38A] as the variant, how does the self-cleavage read?
**A.** 0.166

**Q.** For AACACUGCCAAUGCCGGUCCCAAGCCCGGAUAAAAGCGUAGGGGGCGG [U37C G39U], which self-cleavage is on record?
**A.** 0.11

**Q.** For AACACUGCCAAUGCCGGUCCCAAGCCCGGAUAAAAGCGGAGAGGGCGG [U37C G42A], which self-cleavage is on record?
**A.** 0.105

**Q.** For AACACUGCCAAUGCCGGUCCCAAGCCCGGAUAAAAGCGGAGCGGGCGG [U37C G42C], which self-cleavage is on record?
**A.** 0.196

**Q.** With AACACUGCCAAUGCCGGUCCCAAGCCCGGAUAAAAGCGGAGUGGGCGG [U37C G42U] as the variant, how does the self-cleavage read?
**A.** 0.127

**Q.** With AACACUGCCAAUGCCGGUCCCAAGCCCGGAUAAAAGCGGAGGGAGCGG [U37C G44A] as the variant, how does the self-cleavage read?
**A.** 0.69

**Q.** Which self-cleavage does the source give for AACACUGCCAAUGCCGGUCCCAAGCCCGGAUAAAAGCGGAGGGCGCGG [U37C G44C] here?
**A.** 0.738

**Q.** For AACACUGCCAAUGCCGGUCCCAAGCCCGGAUAAAAGCGGAGGGUGCGG [U37C G44U], which self-cleavage is on record?
**A.** 0.768

**Q.** Which self-cleavage does the source give for AACACUGCCAAUGCCGGUCCCAAGCCCGGAUAAAAGCGGAGGGGACGG [U37C G45A] here?
**A.** 0.691

**Q.** Which self-cleavage does the source give for AACACUGCCAAUGCCGGUCCCAAGCCCGGAUAAAAGCGGAGGGGCCGG [U37C G45C] here?
**A.** 0.26

**Q.** For AACACUGCCAAUGCCGGUCCCAAGCCCGGAUAAAAGCGGAGGGGGCCG [U37C G47C], which self-cleavage is on record?
**A.** 0.341

**Q.** For AACACUGCCAAUGCCGGUCCCAAGCCCGGAUAAAAGCGGAGGGGGCGA [U37C G48A], which self-cleavage is on record?
**A.** 0.639

**Q.** With AACACUGCCAAUGCCGGUCCCAAGCCCGGAUAAAAGGGGGGGGGGCGG [U37G A40G] as the variant, how does the self-cleavage read?
**A.** 0.155

**Q.** For AACACUGCCAAUGCCGGUCCCAAGCCCGGAUAAAAGGGGAGGGGGGGG [U37G C46G], which self-cleavage is on record?
**A.** 0.79

**Q.** Which self-cleavage does the source give for AACACUGCCAAUGCCGGUCCCAAGCCCGGAUAAAAGGGGAGGGGGUGG [U37G C46U] here?
**A.** 0.76

**Q.** With AACACUGCCAAUGCCGGUCCCAAGCCCGGAUAAAAGGCGAGGGGGCGG [U37G G38C] as the variant, how does the self-cleavage read?
**A.** 0.208

**Q.** Which self-cleavage does the source give for AACACUGCCAAUGCCGGUCCCAAGCCCGGAUAAAAGGGCAGGGGGCGG [U37G G39C] here?
**A.** 0.143

**Q.** For AACACUGCCAAUGCCGGUCCCAAGCCCGGAUAAAAGGGUAGGGGGCGG [U37G G39U], which self-cleavage is on record?
**A.** 0.114

**Q.** With AACACUGCCAAUGCCGGUCCCAAGCCCGGAUAAAAGGGGAAGGGGCGG [U37G G41A] as the variant, how does the self-cleavage read?
**A.** 0.209

**Q.** Which self-cleavage does the source give for AACACUGCCAAUGCCGGUCCCAAGCCCGGAUAAAAGGGGACGGGGCGG [U37G G41C] here?
**A.** 0.113

**Q.** For AACACUGCCAAUGCCGGUCCCAAGCCCGGAUAAAAGGGGAUGGGGCGG [U37G G41U], which self-cleavage is on record?
**A.** 0.145

**Q.** For AACACUGCCAAUGCCGGUCCCAAGCCCGGAUAAAAGGGGAGAGGGCGG [U37G G42A], which self-cleavage is on record?
**A.** 0.171

**Q.** Which self-cleavage does the source give for AACACUGCCAAUGCCGGUCCCAAGCCCGGAUAAAAGGGGAGCGGGCGG [U37G G42C] here?
**A.** 0.103

**Q.** With AACACUGCCAAUGCCGGUCCCAAGCCCGGAUAAAAGGGGAGUGGGCGG [U37G G42U] as the variant, how does the self-cleavage read?
**A.** 0.163

**Q.** For AACACUGCCAAUGCCGGUCCCAAGCCCGGAUAAAAGGGGAGGAGGCGG [U37G G43A], which self-cleavage is on record?
**A.** 0.13

**Q.** With AACACUGCCAAUGCCGGUCCCAAGCCCGGAUAAAAGGGGAGGUGGCGG [U37G G43U] as the variant, how does the self-cleavage read?
**A.** 0.173

**Q.** For AACACUGCCAAUGCCGGUCCCAAGCCCGGAUAAAAGGGGAGGGUGCGG [U37G G44U], which self-cleavage is on record?
**A.** 0.805

**Q.** For AACACUGCCAAUGCCGGUCCCAAGCCCGGAUAAAAGGGGAGGGGGCAG [U37G G47A], which self-cleavage is on record?
**A.** 0.673

**Q.** With AACACUGCCAAUGCCGGUCCCAAGCCCGGAUAAAAGGGGAGGGGGCCG [U37G G47C] as the variant, how does the self-cleavage read?
**A.** 0.306

**Q.** For AACACUGCCAAUGCCGGUCCCAAGCCCGGAUAAAAGGGGAGGGGGCGU [U37G G48U], which self-cleavage is on record?
**A.** 0.856

**Q.** With AACACUGCCAAUGCCGGUCCCAAGCCCGGAUAAAAGUAGAGGGGGCGG [G38A] as the variant, how does the self-cleavage read?
**A.** 0.965

**Q.** For AACACUGCCAAUGCCGGUCCCAAGCCCGGAUAAAAGUAGGGGGGGCGG [G38A A40G], which self-cleavage is on record?
**A.** 0.131

**Q.** With AACACUGCCAAUGCCGGUCCCAAGCCCGGAUAAAAGUAGUGGGGGCGG [G38A A40U] as the variant, how does the self-cleavage read?
**A.** 0.118
